Laboratory results published in PMC6625514.

Molecular target: CD71 (transferrin receptor), used in ELISA (UniProt P02786 89-760)
Test: ELISA

Sequence of CD71 (transferrin receptor), used in ELISA (P02786 89-760): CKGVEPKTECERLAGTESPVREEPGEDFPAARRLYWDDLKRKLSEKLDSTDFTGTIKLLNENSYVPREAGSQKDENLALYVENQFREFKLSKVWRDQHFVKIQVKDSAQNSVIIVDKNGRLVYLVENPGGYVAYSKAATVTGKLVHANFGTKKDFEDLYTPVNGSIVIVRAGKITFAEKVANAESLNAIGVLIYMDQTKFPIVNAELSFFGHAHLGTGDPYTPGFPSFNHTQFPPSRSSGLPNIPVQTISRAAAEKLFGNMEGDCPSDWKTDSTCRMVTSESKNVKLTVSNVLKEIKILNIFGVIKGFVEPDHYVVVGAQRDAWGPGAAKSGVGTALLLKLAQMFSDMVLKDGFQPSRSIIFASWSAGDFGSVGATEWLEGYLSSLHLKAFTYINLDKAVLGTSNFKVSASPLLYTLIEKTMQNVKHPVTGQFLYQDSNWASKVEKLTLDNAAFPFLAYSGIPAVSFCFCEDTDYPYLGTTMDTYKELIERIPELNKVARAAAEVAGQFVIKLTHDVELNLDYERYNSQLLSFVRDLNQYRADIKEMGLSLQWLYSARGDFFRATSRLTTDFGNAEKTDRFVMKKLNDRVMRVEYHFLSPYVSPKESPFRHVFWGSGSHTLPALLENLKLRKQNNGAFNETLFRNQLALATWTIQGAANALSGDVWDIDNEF

B1: XQ-2d (ssDNA)
DNA: ACTCATAGGGTTAGGGGCTGCTGGCCAGATACTCAGATGGTAGGGTTACTATGAGC
  Kd: 50.5 ± 27.3 nM
